{
  "source": "patent US20060141546A1",
  "about": "“Bacterial test method by glycated label binding” (priority 2002, published 2006)",
  "key": {"[1]": {"tested_on": "gram negative and positive bacteria", "test": "Bacteria assay by binding of intestinal ALP, all strains (Example 1)", "settings": "for ALP binding to bacterial strains tested: FIG. 8, Table 1", "description": "(§1) Bacterial cells ([…] to 10^8 cells/mL) were washed twice with water after centrifugation to separate the cells into a packed pellet from supernatant liquid. The washed cells in pellet form were suspended in 40 μL water and 10 μL of aqueous bovine intestinal alkaline phosphatase (ALP) was added (2 μg or […]). The mixture was left at room temperature for 30 minutes and then centrifuged, after which the bacterial pellets were washed with water 4-5 times (50 μL). All the washing supernatants were combined. A blank without cells was diluted in the same way. The final pellets were suspended in 50 μl water and both supernatants and cell suspensions were assayed for detection of ALP binding using 2.5 μl of 0.005 M para-nitrophenol phosphate (PNPP) in Tris or EPPS buffer at pH 7.5. The hydrolysis of the substrate results in yellow (PNPP) or blue-green (BCIP) color that is directly proportional to the amount of ALP bound to the bacteria. Alkaline phosphatase (ALP) activity was tested using common substrates such as BCIP (bromo-chloro-indolyl-phosphate) forming a blue/green color in Tris buffer, pH 7.5. After 10 minutes at room temperature the samples were read in a plate reader (Biotek Powerwave Absorbance Reader) at a wavelength of 405 nm. The parallel set of bacteria was run without addition of ALP as controls.\n(§2) The bacteria used to illustrate the invention represent the extremes of gram positive (S. facaelis) and gram negative (E. coli) bacteria. […] The nature of the difference in the cell walls is greatest between the gram negative and positive forms of bacteria."}, "[2]": {"tested_on": "Escherichia Coli (E. Coli)", "test": "Bacteria assay by binding of intestinal ALP (Example 1, FIG. 8, Table 1)", "description": "as §1"}, "[3]": {"tested_on": "Serratia marcescens", "test": "ALP binding compared to E. coli (Table 1)", "description": "as §1, §2"}, "[4]": {"tested_on": "bacteria", "test": "Effect of divalent cations on ALP binding to bacteria (Example 7, Table 5, FIG. 12)", "description": "Bacterial cells (1 to 4.5×10^7 cells/mL) were washed twice with water after centrifugation to separate cells into a packed pellet from the supernatant liquid. The washed cells in pellet form were suspended in 20 μL of EPPS buffer (50 mM at pH 8.0) and 30 μL of water. […]\nThe mixture of glycated protein and bacterial cells was left at 25° C. for 15 minutes. The mixture was then centrifuged at 30,000 rpm for 30 minutes after which the bacterial cells formed a pellet at the bottom of the tube and were washed with water 4-5 times (50 μL). Centrifugation allows separation of glycoprotein bound to the bacteria cells from unbound glycated protein(s).\nAfter washing, the bacterial pellets were suspended in 50 μL of borate buffer (25 mM at pH 9.0). A 5 μL aliquot of the suspension was assayed for detection of ALP binding by adding 5 μL of para-nitrophenol phosphate (PNPP, 100 mM), 50 μL sodium borate buffer (25 mM at pH 9.0) and 140 μL of water. […] The color was read at 405 nm using an ELISA plate reader between 15-30 min; the absorbance is directly proportional to the amount of ALP bound to the bacteria cell."}, "[5]": {"tested_on": "E. coli", "test": "Membrane (Loprodyne) separation of bacteria bound ALP (Example 6, Table 4)", "format": "binding", "description": "Bacteria bound to alkaline phosphatase (ALP) can be separated using a membrane (low protein binding Nylon 66 Loprodyne) on backed microtiter plates (Nunc Nalge International).\nThe loprodyne-membrane-backed plates were treated with 1 or 2% detergent (Tween 20 or TritonX305) in water or buffers (TBS: Tris, 25 mM, pH 7.6 containing 150 mM NaCl or KCO3: 0.1M, pH 9.6) overnight at room temperature. Blocking solutions were vacuum filtered. […] The combined solution was incubated for 15 min at 37° C. on a shaker and then added to the loprodyne-membrane-backed plate.\nThe solution was vacuum filtered leaving bacteria adhered on the membrane and then washed twice with 2% Tween20 in water. To the washed membrane, 200 μl of H2O with 50 μl Glycine (0.05M, pH 10.4) and containing 1 mM PNPP were added and the color formed due to the bacteria bound ALP read at 405 nm.\nThe separation of E. Coli with bound ALP from unbound ALP is shown by a size exclusion membrane in Example 6 and by centrifugation in Examples 1-5. The size of E. Coli is 1×1×2 μm and any membrane, filter or device trapping particles of this size would be acceptable. These include microfluidic devices, filters, column chromatography and chromatography strips. The mass of E. Coli is 1.6×10^−12 gm/cell and any membrane, filter or device trapping a mass of this size would be also acceptable."}, "[6]": {"tested_on": "bacteria", "test": "Saturation binding / Scatchard analysis of glycoprotein binding to bacteria", "settings": "ALP to bacteria", "from_the_text": "There are several methods used to measure binding affinity. The methods of Lineweaver-Burke and Eadie-Hofstee are most popular. The data is used to create a Scatchard plot, where the X axis is the glycoprotein bound and the Y axis is glycoprotein bound divided by the free glycoprotein. From this graph the number of binding sites (also called Bmax, receptor number) is the X intercept and binding constant (also called affinity constant, Kd, or the equilibrium dissociation constant) is the negative reciprocal of the slope. Changes in slope reflect changes in the nature of binding sites and are often used to separate high affinity binding from low affinity binding sites. Commercially available software (GraphPad software Inc) exist to perform this analysis. Only high affinity binding was used in the instant experiments.\nExperimentally, saturation binding experiments are used measure glycoprotein binding at equilibrium at various concentrations of the glycoprotein. The saturation curve is a first constructed to plot the concentration of glycoprotein ligand on the X axis versus the all glycoprotein bound on the cell expressed as concentration of glycoprotein bound/number of bacteria cells on the Y axis. […] This same data is next plotted as a Scatchard plot with the number of binding sites and binding constants determined for the pairs of glycoprotein and bacteria tested. […]"}},
  "data": [
    {"molecule": "ALP: bovine intestinal alkaline phosphatase, glycoprotein enzyme that binds bacteria and serves as label (protein, UniProt P19111 20-506, looked up) Intestinal-type alkaline …: LVPVEEEDPAFWNRQAAQALDVAKKLQPIQTAAKNVILFLGDGMGVPTVTATRILKGQMNGKLGPETPLAMDQFPYVALSKTYNVDRQVPDSAGTATAYLCGVKGNYRTIGVSAAARYNQCKTTRGNEVTSVMNRAKKAGKSVGVVTTTRVQHASPAGAYAHTVNRNWYSDADLPADAQMNGCQDIAAQLVNNMDIDVILGGGRKYMFPVGTPDPEYPDDASVNGVRKRKQNLVQAWQAKHQGAQYVWNRTALLQAADDSSVTHLMGLFEPADMKYNVQQDHTKDPTLQEMTEVALRVVSRNPRGFYLFVEGGRIDHGHHDDKAYMALTEAGMFDNAIAKANELTSELDTLILVTADHSHVFSFGGYTLRGTSIFGLAPSKALDSKSYTSILYGNGPGYALGGGSRPDVNDSTSEDPSYQQQAAVPQASETHGGEDVAVFARGPQAHLVHGVEEETFVAHIMAFAGCVEPYTDCNLPAPTTATSIPD", "values": [
      {"measurement": "ALP binding to bacterial strains tested", "setting": "[1]", "value": "binding occurred to all other gram negative and positive bacteria"},
      {"measurement": "ALP binding to bacterial strains tested", "setting": "[1]; listed as intestinal ALP", "value": "binding to all bacterial strains tested"},
      {"measurement": "amount of ALP bound or activity generated versus amount of bacteria cells", "setting": "[1]; FIG. 9", "value": "directly proportional to the amount of bacteria cells present"},
      {"measurement": "difference of ALP binding between strains relative to S. facaelis or E. coli", "setting": "[1]; changes of strain among gram negative and positive bacteria", "value": "≤ 12", "unit": "%"},
      {"measurement": "ALP binding relative to E. coli", "setting": "[2]; Escherichia coli", "value": 100, "unit": "%"},
      {"measurement": "ALP binding to bacteria (ALP activity of suspended cells after ALP treatment and washings)", "setting": "[2]; gram negative, strains # 9 and 14, FIG. 8", "value": "found to bind the ALP"},
      {"measurement": "ALP binding relative to E. coli", "setting": "[3]", "value": 101, "unit": "%"},
      {"measurement": "O.D. at 405 nm, With ALP", "setting": "[4]; No. cation", "value": 0.30, "unit": "O.D."},
      {"measurement": "bacteria concentration at which ALP binding could be monitored", "setting": "[4]; different strains of bacteria, 1 mM Zn^2+, FIG. 12", "value": "10^5"},
      {"measurement": "Bacteria Binding to ALP (O.D. at 405 nm)", "setting": "[5]; No Bacteria, ALP concentration 1.0 mU", "value": 0.04, "unit": "O.D."},
      {"measurement": "Bacteria Binding to ALP (O.D. at 405 nm)", "setting": "[5]; No Bacteria, ALP concentration 2.0 mU", "value": 0.05, "unit": "O.D."},
      {"measurement": "Bacteria Binding to ALP (O.D. at 405 nm)", "setting": "[5]; No Bacteria, ALP concentration 5.0 mU", "value": 0.16, "unit": "O.D."},
      {"measurement": "Bacteria Binding to ALP (O.D. at 405 nm)", "setting": "[5]; Plus Bacteria, ALP concentration 1.0 mU", "value": 0.13, "unit": "O.D."},
      {"measurement": "Bacteria Binding to ALP (O.D. at 405 nm)", "setting": "[5]; Plus Bacteria, ALP concentration 2.0 mU", "value": 0.30, "unit": "O.D."},
      {"measurement": "Bacteria Binding to ALP (O.D. at 405 nm)", "setting": "[5]; Plus Bacteria, ALP concentration 5.0 mU", "value": 0.83, "unit": "O.D."},
      {"measurement": "binding constant", "setting": "[6]; Scatchard analysis, high affinity binding", "value": "5×10^+6"},
      {"measurement": "number of binding sites", "setting": "[6]; estimated from the Scatchard analysis", "value": 590}
    ]}
  ]
}
